From IntAct's records for PubMed 10466729

B1: Phytochrome B (Arabidopsis thaliana (Mouse-ear cress)), P14713 (parent)
chain: MVSGVGGSGGGRGGGRGGEEEPSSSHTPNNRRGGEQAQSSGTKSLRPRSNTESMSKAIQQYTVDARLHAVFEQSGESGKSFDYSQSLKTTTYGSSVPEQQITAYLSRIQRGGYIQPFGCMIAVDESSFRIIGYSENAREMLGIMPQSVPTLEKPEILAMGTDVRSLFTSSSSILLERAFVAREITLLNPVWIHSKNTGKPFYAILHRIDVGVVIDLEPARTEDPALSIAGAVQSQKLAVRAISQLQALPGGDIKLLCDTVVESVRDLTGYDRVMVYKFHEDEHGEVVAESKRDDLEPYIGLHYPATDIPQASRFLFKQNRVRMIVDCNATPVLVVQDDRLTQSMCLVGSTLRAPHGCHSQYMANMGSIASLAMAVIINGNEDDGSNVASGRSSMRLWGLVVCHHTSSRCIPFPLRYACEFLMQAFGLQLNMELQLALQMSEKRVLRTQTLLCDMLLRDSPAGIVTQSPSIMDLVKCDGAAFLYHGKYYPLGVAPSEVQIKDVVEWLLANHADSTGLSTDSLGDAGYPGAAALGDAVCGMAVAYITKRDFLFWFRSHTAKEIKWGGAKHHPEDKDDGQRMHPRSSFQAFLEVVKSRSQPWETAEMDAIHSLQLILRDSFKESEAAMNSKVVDGVVQPCRDMAGEQGIDELGAVAREMVRLIETATVPIFAVDAGGCINGWNAKIAELTGLSVEEAMGKSLVSDLIYKENEATVNKLLSRALRGDEEKNVEVKLKTFSPELQGKAVFVVVNACSSKDYLNNIVGVCFVGQDVTSQKIVMDKFINIQGDYKAIVHSPNPLIPPIFAADENTCCLEWNMAMEKLTGWSRSEVIGKMIVGEVFGSCCMLKGPDALTKFMIVLHNAIGGQDTDKFPFPFFDRNGKFVQALLTANKRVSLEGKVIGAFCFLQIPSPELQQALAVQRRQDTECFTKAKELAYICQVIKNPLSGMRFANSLLEATDLNEDQKQLLETSVSCEKQISRIVGDMDLESIEDGSFVLKREEFFLGSVINAIVSQAMFLLRDRGLQLIRDIPEEIKSIEVFGDQIRIQQLLAEFLLSIIRYAPSQEWVEIHLSQLSKQMADGFAAIRTEFRMACPGEGLPPELVRDMFHSSRWTSPEGLGLSVCRKILKLMNGEVQYIRESERSYFLIILELPVPRKRPLSTASGSGDMMLMMPY
partner: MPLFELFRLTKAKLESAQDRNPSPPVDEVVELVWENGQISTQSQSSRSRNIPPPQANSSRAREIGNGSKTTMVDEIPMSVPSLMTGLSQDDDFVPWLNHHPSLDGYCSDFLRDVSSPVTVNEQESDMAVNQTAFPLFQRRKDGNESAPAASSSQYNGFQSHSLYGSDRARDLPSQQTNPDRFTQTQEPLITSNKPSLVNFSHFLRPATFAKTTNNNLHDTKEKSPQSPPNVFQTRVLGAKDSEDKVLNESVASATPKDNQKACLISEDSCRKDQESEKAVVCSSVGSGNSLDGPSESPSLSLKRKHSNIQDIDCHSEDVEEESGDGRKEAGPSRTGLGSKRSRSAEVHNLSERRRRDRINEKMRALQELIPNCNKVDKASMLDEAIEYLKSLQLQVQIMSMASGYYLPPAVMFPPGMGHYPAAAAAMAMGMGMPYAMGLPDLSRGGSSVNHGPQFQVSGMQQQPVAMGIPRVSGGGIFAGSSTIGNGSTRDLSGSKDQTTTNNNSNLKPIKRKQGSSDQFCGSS

Variants of: B1
Settings: with pif3_arath PIF3, O80536

Effect of a mutation on the interaction, decreasing interaction:
A750V
G767R
E812K
